Experimental data as given in patent US20180355045A1 (LIMITED LIABILITY COMPANY ONCOMAX LLC ONCOMAX, published 2018).

How the values were obtained:
[1] = target: T1, fibroblast growth factor receptor 1 (FGFR1), preparation not stated (UniProt P11362 22-376, limits assumed); assay: method not stated; antibody from the CHO-OM8-21 cell line; antibody from the CHO-OM8-21 cell line
T1 construct: also called FGF receptor; FGFR1 receptor
T1 sequence (looked up): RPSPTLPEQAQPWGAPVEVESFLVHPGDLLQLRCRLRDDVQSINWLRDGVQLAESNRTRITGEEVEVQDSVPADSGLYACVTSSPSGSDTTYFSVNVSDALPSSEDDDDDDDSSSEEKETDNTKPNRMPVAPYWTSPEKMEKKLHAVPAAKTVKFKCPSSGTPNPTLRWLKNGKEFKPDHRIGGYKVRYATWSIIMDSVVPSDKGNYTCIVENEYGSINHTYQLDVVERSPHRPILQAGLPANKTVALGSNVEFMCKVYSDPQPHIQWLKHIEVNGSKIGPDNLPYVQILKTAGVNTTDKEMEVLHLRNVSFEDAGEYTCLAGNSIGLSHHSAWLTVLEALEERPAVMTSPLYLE

[2] = target: T2, recombinant FGFR1 antigen (on the SPR chip; PA-269#37 or Sino Biologicals #10616-H08H, not told which) (human, UniProt P11362-7 22-374); assay: SPR (BIAcore T100), FGFR1 on a CM5 chip, antibody in flow, 1:1 model
T2 sequence (looked up): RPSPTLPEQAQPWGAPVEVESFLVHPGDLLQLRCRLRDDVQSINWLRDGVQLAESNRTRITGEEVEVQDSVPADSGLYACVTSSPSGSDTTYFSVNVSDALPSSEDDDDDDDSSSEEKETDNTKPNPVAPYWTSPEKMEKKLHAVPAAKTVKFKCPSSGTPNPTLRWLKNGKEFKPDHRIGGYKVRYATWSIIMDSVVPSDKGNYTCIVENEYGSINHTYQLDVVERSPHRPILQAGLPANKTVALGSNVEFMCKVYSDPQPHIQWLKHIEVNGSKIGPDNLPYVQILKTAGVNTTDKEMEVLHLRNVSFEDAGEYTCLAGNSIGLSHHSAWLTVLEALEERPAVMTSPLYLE
Description: Analysis of surface plasmon resonance was performed using the BIAcore T100 System Operation Kit (BIAcore; GE Healthcare). […] Different antibody variants were diluted in HBS-P buffer (10 mmol/L HEPES, pH 7.4, 0.15 mol/L NaCl and 0.05% surfactant P20) and passed over the sensor chip surface (25 μl/min). The sensory surface was washed with HBS-P buffer, and then regenerated using 10 mmol/L glycine-HCl (pH 2). Different antibody concentrations were tested ([…]). Different cyclic kinetic properties were determined, and the results were analyzed using the 1:1 (Langmuir) binding model, inclusive of the association rate constant (Kₒₙ), dissociation rate constant (Koff) and dissociation constant (Kd) (Biacore, GE Healthcare).

B1: humanized anti-FGFR1 antibody OM-RCA-01 (VH3/VL5) (antibody, human IgG1, kappa, V domains shown)
VH: QVQLQESGPGLVKPSQTLSLTCTVSGYSITSDYAWSWIRQHPGKGLEWIGYITYSGTTYYNPSLKSRVTISVDTSKNQFSLKLSSVTAADTAVYYCARDGNYFDYWGQGTLVTVSS
VL: DIQLTQSPSFLSASVGDRVTITCRASSSVSSSYLHWYQQKPGKAPKLLIYRTSTLQSGVPSRFSGSGSGTEFTLTISSLQPEDFATYYCQQWSGYPLTFGGGTKVEIKR
notes: Human IgG1 (IGHG1*03) / kappa; also called VH3A/L5; OM1
Kd [1]: 9.27 nM | Kd [2]: 1.59 nM
